This experiment has as its target T1, Recombinant wild-type human ubiquitin (human, UniProt P0CG48 1-76).
T1 construct: ubiquitin, human, wild type; C-terminal residue G76; 15N labelled in some NMR experiments; In the rows of assays a1, a4 and a5 it is covalently linked by G76 to K117 of m1 (the conjugate is m3); also called free ubiquitin; mono-ubiquitin; source: recombinant, purified by anion exchange followed by gel filtration
Put plainly: NMR titration; 15N ubiquitin (50 μM) titrated with unlabeled JosK117-onlyW87R or its mono-ubiquitinated form to a maximum of 2 equivalents; 20 mM Na phosphate pH 6.5, 2 mM DTT, 25°C. As to conditions: both partners purified.

B1: W87R mutant of JosK117-only (domain or fragment, UniProt P54252 1-182, looked up)
chain: MESIFHERQEGSLCAQHCLNNLLQGEYFSPVELSSIAHQLDEEERMRMAEGGVTSEDYRTFLQQPSGNMDDSGFFSIQVISNALRVRGLELILFNSPEYQRLRIDPINERSFICNYKEHWFTVRRLGRQWFNLNSLLTGPELISDTYLALFLAQLQQEGYSIFVVRGDLPDCEADQLLQMIR
notes: ataxin-3, N-terminal Josephin domain, amino acids 1-182; K8, 85, 125, 128 and 166 mutated to arginine, and W87R (site 2); also called JosK117-onlyW87R; JosK117-only W87R; source: recombinant; mutant prepared with QuickChange Site-Directed Mutagenesis kit
For the molecule B1, the binding result is “binds”.

For the origin of these results see article PMC4428445 (Frontiers in Molecular Biosciences, 2015).
